Here are results for 40 sequences from the nanobody polyreactivity screen of Harvey et al. (2022).

The data set is described as follows: yeast display, Sf9 membrane polyspecificity reagent, FACS + sequencing; frameworks hold sequencing errors. In short, it runs like this:
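After 36–48 hours of galactose induction, yeast (Saccharomyces cerevisiae BJ5465) displaying a synthetic nanobody library were stained at 4 °C for 1 hour with 10% biotinylated, detergent-solubilized Sf9 membrane reagent. Streptavidin microbeads enriched the stained cells before FACS sorting into low and high (top ~1%) gates on anti-HA and streptavidin fluorescence. Each clone's polyreactivity label reflects its gate of origin.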
Regarding “QVHLVESGGGLVQAGGSLRLSCAASGSTFGTYAMGWYRQAPGKERELVAAISNSGGSTYYADSVKGRFTISRDYAKNTVYLQMNSLKPEDTAVYYCNTDGLVRNGPFYSWGQGTQVTVSS”, the “polyreactivity (PSR sort gate)” value is recorded as “low polyreactivity”.

For “QVQLVESGGGLVQAGGSLRLSCAACGSTFSVHAMGWYRQAPGKERELVAAISWGGTSTYYADSVKGRFTISRDNAKNTVYLQMNSLKPEDTAVYYCAAVSRGKVNTVYYWGQGTQVTVSS”, the “polyreactivity (PSR sort gate)” value is on record as “high polyreactivity”. To “QVQLVESGGGLVQAGGSLRLSCAASGSTFDRYDMVWYRQAPGKETELVAAITRRGGSTYYADSVKGRFTFSRDNAKNTVYLQMNSLQPEDTAVYYCNAKHFAYSVAHPYLRYGYDYWGQGTHVTVSS” belongs “low polyreactivity”. To “QFQLVESGGGLVQAGGSLRLSGAASGRTFRIYAMGWYRQAPGKDRELVAAITRSSGSTYYADSVKGRFTISRDNAKNTVYLQMNSLKPEDTAVYYCAAEALFEPIYDYWGQGTQVTVSS” belongs “high polyreactivity”. Turning to “QVQLVESGGGLVQAGGSLRLSCSASGFIFTTYAMAWYRQAPGKERELVAAIRNSDGSTYYADSVKGRFTISRDNAKNTVYLQMNSLKPVDTAVYYCAKRYRGEPGRTYGYWGQGTQVTVSS”, the “polyreactivity (PSR sort gate)” value is on record as “high polyreactivity”. To “QVQLVESGGGLVQAGGSLRLTCAASGSTFTYNGMGWYRQAPGKERELVAAITKRGGSTYYADSVKGRFTISRDNAKNTVYLQMNSLKPEETAVYYCAKPAASGFRWDSGYWGQGTQVTLSS” belongs “high polyreactivity”; to “QVQLVESGGGLVQAGGRLRLSCAASGFISKYYAMGWSRQAQGKERELVASISRDGSTSYADSVKGRFTISRDNAKNTVYIQMNSLKPEDTAVYYCAAPSYRTRYYYWGQGTQVTVSS”, “high polyreactivity”.

Take “QVQLVESGGGLVQAGGSLRLSCAASGFIFDSYAMGWYRQAPGKESELVAAINWNGGRTYYADSVRGRFTISRDNAKNTVYLQMNSLKPEDTAVYYCNAPGIHLGYYRFGYWGQGTQVTVSS”: the “polyreactivity (PSR sort gate)” value is given as “high polyreactivity”. To “QVQLVESGVGLVQAGGSLRLSCAASGGIFSTYTMGWYIQAPGKERELVAAITTGNSTYYADSVKGRFTISRDNAKNTVYLQMNSLKPEDTAVYYCAAFAASRDYYRRLIHDGYDYWGQGTQVTVSS” belongs “low polyreactivity”. On to “QVQLVESGGGLVQAGGSRRLSCAASGSTFRINAMGWYRQAPGKERELVADINSGGNTTYADSVKGRFTISRDNAKNTVYLQMNSLKPEDTAVYYCAADPVFDLWEFLLDYGYDYWGQGTQVTVSS”, for which the “polyreactivity (PSR sort gate)” value is “low polyreactivity”.

As to “QVQLVESGGGLVQAGGSLRLSCAASGLTFIYYAMGWYRQAPGKERELVAAISVSGGSTYYADSVKGRFTISRDNAKNTVYLQMNSLKQEDTAVYYCAADWFVHKPRYQYSFDYWGQGTQVTVSS”, the “polyreactivity (PSR sort gate)” value is “low polyreactivity”. To “QVQLVESGGGLVQAGGSLRLSCAASGSIFGFYGMGWYRQAPGKERELVAAISSRGGSTYYADSVKGRFTISRDNAKNTVYLQMNSLKPEDTAVYYCATERERTMGYWGQGTQVTVSW” belongs “high polyreactivity”; to “QVQLVESGGGIVQAGGSLRLSCAASGRSFPNNAMGWYRPAPGKERELLAAISSGSSTDYADSVKGRFTISRDNAKNTVSLQMNSLKPEATAVYYCNAGDYTYPGSPWPGYAYDYWGLGTQVTVSS”, “low polyreactivity”; to “QVQLVESGGCLVQAGGSLRISCAASGLTFKGYTMGWYRQAPGKEREFVAAITGGVGSTYYADSVKGRFTISRDNAKNTVYVHMKSLQPEDTAVYYCNSVSYGYTDLYIFYTGYYYWGQGTQVTVSS”, “low polyreactivity”. To “QVQLVESGGGLVQAGGSLRLSCAASGTIFATYAMGWYRQAPGKERELVAAITSSDGSTNYADSVKGRFTISRDNAKNTVYLQMNSLKPEDTAVYYCAKDTPQSYFRYDYLGQGTQVTVSS” belongs “low polyreactivity”; to “QVQLVESGGGLVQAGGSLRLSCAASGITFIYYAMGWYRQAPGKEREFVAAISSRDDSTYYADSVKGRFTISRDNAKNTVYLQMNSLKPEDTAVYYCAAASSRRSAIKYGYWGQGTQVTVSS”, “high polyreactivity”; to “QVQLVESGGGLVQAGGSLRLSCAASGFTFKWSAMGWYRPAPGKETELVATITIGGRTNYADSVKGRFTISRDNAKYTVYLQMNSLKPEDTAVYYGATYFVGFRLSDYDYWGQGTQVTVSS”, “low polyreactivity”.

With “QVQLVESGGGLVQAGGSLRLSCAASGLTFGTNSMGWYRQAPGKEMELVAAINRGGGSTYYADSVKGRVTISRDNAKNTVYLQMNSLKPEDTAVYYCAKSYSGSRTSDYWGQGTQVTVSS”, the “polyreactivity (PSR sort gate)” value was “high polyreactivity”. The entry for “QVQLVESGGGLVQAGGSLRLSCAASGRTFERNALGWYRQAPGKEREFVAAITEIGGSTYYADSVKGRFTISRDNAMNTVYLQMNSLKPEDTAVYYCAKDGTYSPYDYWGQGTQVTVSS” is “low polyreactivity”; for “QVQLVESGGGLVQAGGSLRLSCAASGSTFAYYVMGWYRQAPGKERELVAAISRGGRTYYADSVKGSFTISRDNAKNTVYLQMNSLKPEDTSVYYCNKVYVVYSRSKGFYYTYLKYEYWGQGTQVTVSS” it is “low polyreactivity”; for “QVQLVESGGGLVQAGGSLRLSCAASGRIFRRNAMGWYRQAPGKERELVAAITSSGGNTYYADSVKGRFTISRDNAKNTVYLQMNSLKPEDTAVYYCAAELRPYITYDGPRKKFYYWGQGTQVTVSS” it is “high polyreactivity”. With “QVQLVESGGGLVQAGGSLRLSCAASGFTIERYAMGWYRQAPGKERELVAVISTSGGSTYYADSVKGRFTISRDNAKNTVYLQMNSLKPEDTAVYYCAKDGSSRGDYHFGWGYYYWGQGSQVTVSS”, the “polyreactivity (PSR sort gate)” value is recorded as “low polyreactivity”. To “QVQLVESGGGLVKAGGSLRLSCAASGSTFGSNALGWYRQAPGKERELVAAISNSGGRTYYADSVKGRFTISRDNAKNTVYLQMNSLKPEDTAVYYCAVGSYRDGDYWGQGTQVTVSS” belongs “high polyreactivity”. The entry for “QVQLVESGGGLVQAGGSLRLSCAASGSIFAGNAMGWYRQAPGKERELVAAITFSAGRTSYADSVKGRFTISRDNAKNTVYLQMNSLKPEDTAVYYCAARYRTDYYPEYDYWGQGTQVTVSS” is “low polyreactivity”; for “QVQLEESGGGLVQAGGSLRLSCAASGSTFQLYAMGWYRPAPGKERELVAGISRDGSTYYADSVKGRFTISRDNAKNTVFLQMNSLKPEDTAVYYCAAKYYGNKRDLYYWGQGTQVTVSS” it is “low polyreactivity”. The entry for “QVQLVESGGGLVQAGGSLRLSCAASGFTFWLYAMGWYRQAPGKERELVAAIDWDGGTYYADSVKGRFTISRDNAKNTVYLQMNSLKPEDTAVYYCAARYRYYYTRYDYWGQGTQVTVSS” is “high polyreactivity”; for “QDQLVESGGGLVQAGGSLRLSCAASGRIFPGNAMGWYIHEPGKERELVADITSGGSTNYADSVNGRFTISRDNAKNSVYLQMNSLKPEDTAVYYCAVGQIYQTSDHRLQYVYWGQGTQVTVSS” it is “low polyreactivity”; for “QVQLVESGGGLVQAGGSLRLSCAASGFILDYYAMGWYRQAPGKERELVAANSYSGGSTYYADSVKGRFTISRDNAKNTVYLQMTSLKAEDTGVYYGNAGVLVLLYAYLPSELEYWGQGTQVTVSS” it is “low polyreactivity”. “QVQLEESGGGLVQAGGSLRLSCAASGRTFSGYAMGSYRQAPGKDRELVAAITRRGGTTYYADSVKGRFTISRDNAKNTVYLQMNSLKPEDTAVYYCAAAKPRVISQKIIYYYWGQGTQVTVSS”: the “polyreactivity (PSR sort gate)” value is given as “high polyreactivity”. To “QVQLGESGGGLVQAGGSLRLSCAASGLTFYLYVMGWYRQAPGTERELVAAISRRGGSTYYADSVKGRFTISRDNAKNTVYLQMNSLNPEDTAVYYCAASVYGTYRGIQYGYWGQGTQVTVSS” belongs “high polyreactivity”; to “QDQLVDSGGGLVQAGGSLRLSCASSGGTFSYYTMGWYRQAPGKERELVARISKNGGRTYYADSVKGRFTISRDNAKNTVYLQLNSLKPEDTAVYYCNAAGRTYDFSGGRTMEYWGQGTQVTVSS”, “high polyreactivity”; to “HVHLVESGGGLVQAGGSLRLSCASSGPTFGWNVMGWYRQAPGKERELVAAISGSGGSTYYADSVKGRFTISRDNAKNTVYSQMNSLKPEDTAVYYCAALYGPGREYDYWGQGTQVSVSS”, “low polyreactivity”. The entry for “QVQLVESGGGLVQAGGSLRLSCAASGSTFYGNAMGWYRQAPGKERELVAAITWGDASTYYADSVKGRFTISRDNAKNTVYLQMNSLKPEDTAVYYCAVDESYGSSSDMDYWGQGTQVTVSS” is “low polyreactivity”. As for “QVQLLETGRGLVQAGGSLRLSCAPSGITFRYYAMGWYRQAPGQERELVAAITRSGGSTYYADSVKGRFTLSRYNAKNTVYLQMNSLKPEDTAVYYCAAQPVSRHTGTFYRSNGYDYWGQVTQVTVSS”, the “polyreactivity (PSR sort gate)” value is “high polyreactivity”. Consider “QVQLVESGGGLVQAGGSLRLSCAASGRTFRYYALGWYRQAPGKERELVASITGSGGSTTYADSVKGRFTISRDNAKNTVYLLMNSLKPEDTAVYYCAVRYPYYSYRAKLGYWGQGTQVTVSS”, for which the “polyreactivity (PSR sort gate)” value is reported as “high polyreactivity”. To “QVQLVESGGGLVQAGGSLRLSCASSGSIFNTYTMGWYRQAPGKDRELVAAISSGGSTYYADSVKGRFTISRDNAKKTVYLQMNSLKPEDTAVYYCAAYGHSFQIYDYWGQGTHVTVSS” belongs “low polyreactivity”; to “QVQLVESGGGLVQAGGSLRLSCAASGSIFIPNAMGWYRQAPGKERELVAAIRSGGSTYYADSVKGRFTISRDNAKNTVYLQLLSLKPEDTAVYYCAADTYTYYYYLARYYYWGQGTQVTVSS”, “low polyreactivity”. To “QVQLVESGGGLVQAGGSLRLSCAASGFIFYKNAMGWYRQAPGKERELVAAISRRGSSTYYADSVKGRFTISRDNAKNTVYLQMNSLKPEDTAVYYCAADSHIDHGKWAYDYWGQGTQVTVSS” belongs “high polyreactivity”. For the sequence “QVQLVESGGGLVQAGGSLRLSCAASGRTFRWYTMGWYRQAPGKEREFVAAITWSGSSTDYADSVKGRFTISRDNAKNTVYLQMNSLKPEDTAVYYCAAENRRSRDDYWGQGTQVTVSS”, the “polyreactivity (PSR sort gate)” value was “high polyreactivity”. The entry for “QVQLVESGGGLVQAGGSLRLSCAASGRTFKRNAMGWYRQAPGKERELVAGISGSGTTTYYADSVKGRFTISRDNAKNTVYLQMNSLKPEDTAVYYCAARALSHGARYDYWGQGTQVTVSS” is “high polyreactivity”.
